Here are results for two substances from patent US5187153A, “Methods of treatment using Alzheimer's amyloid polypeptide derivatives” (Scios Nova Inc., priority 1990, dated 1993).

For one assay, the target named is T1, Urokinase (Homo sapiens, UniProt P00749).
T1 construct: urokinase (0.75 U/mg from human kidney cells, Sigma Chemical Co.); purchased Sigma Chemical Co; host or cells: human kidney cells
Briefly: Protease inhibition, fluorogenic MCA substrate: urokinase. In kind it is biochemical. The source says:
(§1) The effects of A4 inhibitor on serine- and thiol- proteases were examined as follows: trypsin (17,000 units/mg from porcine pancreas), factor Xa and β-thrombin (gifts from Dr. Iwanagu, Kyushu University, Fukuoka, Japan), tryptase and chymase (both from rat peritoneal mast cells purified as described in Kido et al., Arch Biochem Biophys 239:436-443 (1985)), α-chymotrypsin (0.75 U/mg from bovine pancreas), elastase (33 U/mg from porcine pancreas), papain, cathepsin B (from rat liver purified as described in Towatari et al., Eur J Biochem 102:279-289 (1979)), plasmin (0.16 U/mg from human plasma), urokinase (0.75 U/mg from human kidney cells, Sigma Chemical Co.), tissue kallikrein (50 U/mg from porcine pancreas) or plasma kallikrein (9.4 U/mg from human plasma) was preincubated with various concentrations of the inhibitor in a total volume of 1.5 ml of buffer containing bovine serum albumin (0.1 mg/ml). […] The amount of 7-amino-4-methylcoumarin liberated from the substrates was determined fluorometrically with excitation and emission wavelengths of 380 nm and 460 nm, respectively, in a Hitachi fluorescence spectrophotometer, 650-10MS model, as reported in Kido et al. (1988), supra. Protein concentration was determined with bicinchoninic acid protein assay reagent as described by Smith et al., Anal. Biochem. 150:76-85 (1985). […]

Another assay addresses T2, Chymase (Rattus norvegicus, UniProt P09650).
T2 construct: tryptase and chymase (both from rat peritoneal mast cells purified as described in Kido et al); from tissue; host or cells: rat peritoneal mast cells
T2 sequence (P09650 21-260): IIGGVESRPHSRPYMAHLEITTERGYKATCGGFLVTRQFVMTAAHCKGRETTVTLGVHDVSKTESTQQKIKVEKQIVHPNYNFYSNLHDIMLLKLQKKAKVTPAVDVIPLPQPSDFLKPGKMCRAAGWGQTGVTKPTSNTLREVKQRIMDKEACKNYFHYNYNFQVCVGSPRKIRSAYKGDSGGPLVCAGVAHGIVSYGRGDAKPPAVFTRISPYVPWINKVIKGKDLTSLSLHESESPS
Put plainly: Protease inhibition, fluorogenic MCA substrate: chymase. In kind it is biochemical.
From the text: as §1

The next assay concerns the target T3, Cathepsin B (Rattus norvegicus, UniProt P00787).
T3 construct: cathepsin B (from rat liver purified as described in Towatari et al); from tissue; host or cells: rat liver
Put plainly: Protease inhibition, fluorogenic MCA substrate: cathepsin B. In kind it is biochemical.
From the text: as §1

In assay [1] the target is T4, trypsin (Sus scrofa, UniProt P00761).
T4 construct: trypsin (17,000 units/mg from porcine pancreas); from tissue; host or cells: porcine pancreas
Briefly: Protease inhibition, fluorogenic MCA substrate: trypsin. In kind it is biochemical, porcine. From the text: The effects of A4 inhibitor on serine- and thiol- proteases were examined as follows: trypsin (17,000 units/mg from porcine pancreas), factor Xa and β-thrombin (gifts from Dr. Iwanagu, Kyushu University, Fukuoka, Japan), tryptase and chymase (both from rat peritoneal mast cells purified as described in Kido et al., Arch Biochem Biophys 239:436-443 (1985)), α-chymotrypsin (0.75 U/mg from bovine pancreas), elastase (33 U/mg from porcine pancreas), papain, cathepsin B (from rat liver purified as described in Towatari et al., Eur J Biochem 102:279-289 (1979)), plasmin (0.16 U/mg from human plasma), urokinase (0.75 U/mg from human kidney cells, Sigma Chemical Co.), tissue kallikrein (50 U/mg from porcine pancreas) or plasma kallikrein (9.4 U/mg from human plasma) was preincubated with various concentrations of the inhibitor in a total volume of 1.5 ml of buffer containing bovine serum albumin (0.1 mg/ml). The buffers used were as follows: 0.1 M Tris-HCl, pH 7.5, for trypsin, plasmin and urokinase; 0.1 M Tris-HCl, pH 8.0, for chymase and α-chymotrypsin; 0.1 M Tris-HCl, pH 8.0, containing 10 mM CaCl2 for factor Xa and α-thrombin; 0.1 M Tris-HCl, pH 8.5, for tryptase M; 0.1 M Tris-HCl, pH 7.8, for plasma and tissue kallikrein; 0.1 M Tris-HCl, pH 7.0 for elastase; 50 mM acetate, pH 6.0, containing 1 mM EDTA and 4 mM cysteine for papain and cathepsin B. After preincubation for 5 min at 25° C., 7.5 μl of 20 mM concentrations of the fluorogenic substrate shown in Table I were added and the residual activity of each protease was measured in a quartz cuvette maintained thermostatically at 25° C. The amount of 7-amino-4-methylcoumarin liberated from the substrates was determined fluorometrically with excitation and emission wavelengths of 380 nm and 460 nm, respectively, in a Hitachi fluorescence spectrophotometer, 650-10MS model, as reported in Kido et al. (1988), supra. Protein concentration was determined with bicinchoninic acid protein assay reagent as described by Smith et al., Anal. Biochem. 150:76-85 (1985). […]

Another assay concerns the target T5, α-chymotrypsin (Bos taurus, UniProt P00766).
T5 construct: α-chymotrypsin (0.75 U/mg from bovine pancreas); from tissue; host or cells: bovine pancreas
Briefly: Protease inhibition, fluorogenic MCA substrate: α-chymotrypsin. In kind it is biochemical, bovine.
From the text: as §1

Another assay concerns α-Thrombin. Put plainly: Protease inhibition, fluorogenic MCA substrate: α-thrombin. The class given is biochemical.
From the text: as §1

The target in another assay is T6, Plasma kallikrein (Homo sapiens, UniProt P03952).
T6 construct: plasma kallikrein (9.4 U/mg from human plasma); from tissue; host or cells: human plasma
Put plainly: Protease inhibition, fluorogenic MCA substrate: plasma kallikrein. The class given is biochemical.
From the text: as §1

The next assay concerns the target Factor Xa. Briefly: Protease inhibition, fluorogenic MCA substrate: factor Xa. The class given is biochemical. Conditions: substrate Boc-Ile-Glu-Gly-Arg-MCA, pH 8.0, 25° C.
From the text: as §1

Another assay deals with T7, Tissue kallikrein (Sus scrofa, UniProt P00752).
T7 construct: tissue kallikrein (50 U/mg from porcine pancreas); from tissue; host or cells: porcine pancreas
Briefly: Protease inhibition, fluorogenic MCA substrate: tissue kallikrein. The class given is biochemical, porcine.
From the text: as §1

Another assay deals with T8, Elastase (Sus scrofa, UniProt P00772).
T8 construct: elastase (33 U/mg from porcine pancreas); from tissue; host or cells: porcine pancreas
Put plainly: Protease inhibition, fluorogenic MCA substrate: elastase. The class given is biochemical, porcine.
From the text: as §1

For the next assay, the target named is T9, Plasmin (Homo sapiens, UniProt P00747).
T9 construct: plasmin (0.16 U/mg from human plasma); from tissue; host or cells: human plasma
Briefly: Protease inhibition, fluorogenic MCA substrate: plasmin. The class given is biochemical.
From the text: as §1

The target of the next assay is T10, Papain (Carica papaya, UniProt P00784).
T10 sequence (P00784 134-345): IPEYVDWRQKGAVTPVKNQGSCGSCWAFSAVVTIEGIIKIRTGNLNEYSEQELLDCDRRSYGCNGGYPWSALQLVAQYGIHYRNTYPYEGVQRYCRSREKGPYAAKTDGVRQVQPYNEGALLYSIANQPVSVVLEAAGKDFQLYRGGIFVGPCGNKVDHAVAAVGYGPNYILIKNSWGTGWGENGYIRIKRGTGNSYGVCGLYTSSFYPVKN
Put plainly: Protease inhibition, fluorogenic MCA substrate: papain. The class given is biochemical.
From the text: as §1

In a further assay the test system is Tryptase M. Put plainly: Protease inhibition, fluorogenic MCA substrate: tryptase M. The class given is biochemical, rat.
From the text: as §1

In assay [2] the target is Trypsin (Homo sapiens, UniProt P07477). Put plainly: Trypsin inhibition assay, release of p-nitroaniline from N-benzoyl-D-arginine-p-nitroaniline. In kind it is biochemical. Conditions: HPLC peaks of the purified inhibitor. On the procedure:
All 8 oligonucleotides encoding either the phoA or ompA fusions were mixed together and treated with ligase. […] The ligated constructs were then ligated into the NdeI-HindIII sites of the vector pTRP233. The ligated vectors were transfected into E. coli strain MC1061 and Amp^R colonies selected. […] Miniprep DNA was used to transfect strains W3110 and JE5505. Small scale cultures of each of the three strains were grown and induced with IAA overnight. Culture supernatants were examined for trypsin inhibitory activity. Trypsin is assayed for its ability to hydrolyze the synthetic substrate N-benzoyl-D-arginine-p-nitroaniline to release p-nitroaniline (pNA). The release of pNA as a function of time is easily monitored in a spectrophotomer and can be quantitated to measure trypsin activity. The inhibitor is detected in this assay by virtue of its ability to bind to trypsin and prevent hydrolysis of the substrate by trypsin. Inhibitory activity was detected in the culture medium for both ompA and phoA constructs in JE5505 but not W3110 or MC1061. Expression levels appeared to be higher with the phoA construct and so only this construct was used for subsequent experiments.

Like-named read-outs stand apart in the source and are kept apart here. Where no end group is shown, it is not given here.

T4 sequence (P00761 9-231): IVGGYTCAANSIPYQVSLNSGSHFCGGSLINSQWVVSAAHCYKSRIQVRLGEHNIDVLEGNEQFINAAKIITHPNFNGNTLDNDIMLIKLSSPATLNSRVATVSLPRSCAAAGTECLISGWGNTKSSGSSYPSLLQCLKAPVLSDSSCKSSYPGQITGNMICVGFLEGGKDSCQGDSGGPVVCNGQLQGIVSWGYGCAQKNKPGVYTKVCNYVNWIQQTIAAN
T6 sequence (P03952 20-638): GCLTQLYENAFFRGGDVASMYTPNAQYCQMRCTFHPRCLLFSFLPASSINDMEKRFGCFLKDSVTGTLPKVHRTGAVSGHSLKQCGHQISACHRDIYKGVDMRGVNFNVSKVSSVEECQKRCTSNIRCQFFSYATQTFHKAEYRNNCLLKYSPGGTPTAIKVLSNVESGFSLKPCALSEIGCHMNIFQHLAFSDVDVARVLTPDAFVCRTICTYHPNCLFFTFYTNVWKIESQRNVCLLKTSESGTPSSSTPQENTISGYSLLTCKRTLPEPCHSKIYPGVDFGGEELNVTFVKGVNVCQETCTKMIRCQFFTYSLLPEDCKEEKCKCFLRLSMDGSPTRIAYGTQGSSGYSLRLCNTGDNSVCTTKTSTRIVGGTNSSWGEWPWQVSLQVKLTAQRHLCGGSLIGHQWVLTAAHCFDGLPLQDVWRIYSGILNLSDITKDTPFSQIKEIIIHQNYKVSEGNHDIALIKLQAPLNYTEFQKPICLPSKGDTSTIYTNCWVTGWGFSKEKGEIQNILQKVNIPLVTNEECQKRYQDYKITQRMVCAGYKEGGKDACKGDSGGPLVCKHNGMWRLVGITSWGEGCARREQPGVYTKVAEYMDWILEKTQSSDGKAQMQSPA
T7 sequence (P00752 8-246): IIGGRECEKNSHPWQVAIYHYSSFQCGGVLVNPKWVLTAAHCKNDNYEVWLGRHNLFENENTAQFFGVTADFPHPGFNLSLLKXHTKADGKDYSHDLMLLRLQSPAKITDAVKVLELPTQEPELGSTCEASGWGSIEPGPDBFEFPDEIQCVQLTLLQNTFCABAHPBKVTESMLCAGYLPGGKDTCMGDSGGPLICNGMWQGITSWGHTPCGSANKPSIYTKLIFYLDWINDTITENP
T9 sequence (P00747 581-810 limits assumed): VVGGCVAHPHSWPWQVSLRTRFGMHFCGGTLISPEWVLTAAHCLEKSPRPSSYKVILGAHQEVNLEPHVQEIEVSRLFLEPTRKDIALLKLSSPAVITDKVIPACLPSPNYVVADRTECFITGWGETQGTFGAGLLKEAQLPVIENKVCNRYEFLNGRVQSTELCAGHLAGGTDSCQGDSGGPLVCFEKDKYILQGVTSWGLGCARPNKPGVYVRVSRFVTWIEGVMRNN
T9 sequence (P00747 97-580 partner limits assumed): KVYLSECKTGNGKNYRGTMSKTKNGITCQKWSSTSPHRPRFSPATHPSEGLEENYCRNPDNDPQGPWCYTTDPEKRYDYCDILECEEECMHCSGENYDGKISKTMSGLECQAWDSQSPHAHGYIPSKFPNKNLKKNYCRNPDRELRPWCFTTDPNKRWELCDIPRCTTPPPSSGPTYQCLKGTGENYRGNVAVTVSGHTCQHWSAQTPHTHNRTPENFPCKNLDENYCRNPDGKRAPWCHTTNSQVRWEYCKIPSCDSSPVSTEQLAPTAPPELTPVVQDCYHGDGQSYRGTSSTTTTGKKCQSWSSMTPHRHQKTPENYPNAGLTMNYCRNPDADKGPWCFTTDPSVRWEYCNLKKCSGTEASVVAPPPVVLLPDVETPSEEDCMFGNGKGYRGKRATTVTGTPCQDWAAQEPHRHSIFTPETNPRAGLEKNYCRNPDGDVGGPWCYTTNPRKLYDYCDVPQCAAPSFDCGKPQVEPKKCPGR
T3 sequence (P00787 80-339): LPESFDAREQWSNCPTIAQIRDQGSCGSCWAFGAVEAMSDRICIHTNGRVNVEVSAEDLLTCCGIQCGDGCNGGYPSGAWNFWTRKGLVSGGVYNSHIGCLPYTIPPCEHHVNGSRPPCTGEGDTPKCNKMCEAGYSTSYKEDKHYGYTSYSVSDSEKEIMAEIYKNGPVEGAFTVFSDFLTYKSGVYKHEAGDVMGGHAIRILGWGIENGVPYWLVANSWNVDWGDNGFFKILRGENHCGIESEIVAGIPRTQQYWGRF
T8 sequence (P00772 27-266): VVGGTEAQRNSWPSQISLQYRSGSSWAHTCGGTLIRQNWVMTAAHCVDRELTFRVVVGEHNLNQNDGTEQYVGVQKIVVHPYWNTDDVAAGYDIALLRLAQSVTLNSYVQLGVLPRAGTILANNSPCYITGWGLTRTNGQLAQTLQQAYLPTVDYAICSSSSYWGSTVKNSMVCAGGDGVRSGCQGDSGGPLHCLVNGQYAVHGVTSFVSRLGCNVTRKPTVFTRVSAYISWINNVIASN

On to “A4i: 57 amino acid Kunitz-type serine protease inhibitor encoded by the 168 bp insert of λAPCP168i4”, for which the “inhibition of urokinase (in words)” value with Urokinase is “did not inhibit”. Besides, the inhibition constant Ki was greater than 1000 nM with Urokinase (Urokinase, substrate Glt-Gly-Arg-MCA, pH 7.5, 25° C.); greater than 1000 nM with Chymase (Chymase, substrate Suc-Leu-Leu-Val-Tyr-MCA, pH 8.0, 25° C.); greater than 1000 nM in the assay with Cathepsin B (Cathepsin B, substrate Z-Phe-Arg-MCA, pH 6.0, 25° C.); 2.7 nM with trypsin [1] (Trypsin, substrate Boc-Phe-Ser-Arg-MCA, pH 7.5, 25° C., read-out: Ki value); 3 nM with trypsin [1] (pancreatic trypsin, read-out: Ki); 8.5 nM in the assay with α-chymotrypsin (α-chymotrypsin). In addition, the Ki at α-Thrombin (α-Thrombin, substrate Boc-Val-Pro-Arg-MCA, pH 8.0, 25° C.) was greater than 1000 nM; with Plasma kallikrein (Plasma kallikrein, substrate Z-Phe-Arg-MCA, pH 7.8, 25° C.), 73.9 nM; on Factor Xa, 257 nM; with Tissue kallikrein (Tissue kallikrein, substrate Pro-Phe-Arg-MCA, pH 7.8, 25° C.), 28.4 nM; in the assay with Elastase (Elastase, substrate Suc-Ala-Pro-Ala-MCA, pH 7.0, 25° C.), greater than 1000 nM; in the assay with Plasmin (Plasmin, substrate Boc-Val-Leu-Lys-MCA, pH 7.5, 25° C.), 0.075 nM. Further, the Ki is greater than 1000 nM with Papain (Papain, substrate Z-Phe-Arg-MCA, pH 6.0, 25° C.) and 0.22 nM on Tryptase M (tryptase, unit inferred, read-out: dissociation constant Ki). Moreover, the “inhibition of chymase (in words)” value with Chymase is recorded as “did not inhibit”. The “inhibition of cathepsin B (in words)” value in the assay with Cathepsin B was “did not inhibit”. The “inhibition of pancreatic trypsin (in words)” value in the assay with trypsin [1] is listed as “inhibits”. Moreover, the “inhibition of α-chymotrypsin (in words)” value with α-chymotrypsin is “inhibits”. For the same substance, the “inhibition of α-thrombin (in words)” value in the assay on α-Thrombin is reported as “did not inhibit”. In the assay with Plasma kallikrein, the “inhibition of serum kallikrein (in words)” value is listed as “inhibits”. Besides, the “inhibition of tissue kallikrein (in words)” value with Tissue kallikrein is “inhibits”. Moreover, the “inhibition of pancreatic elastase (in words)” value with Elastase is recorded as “did not inhibit”. Also, in the assay with Plasmin, the “inhibition of plasmin (in words)” value is recorded as “strongly inhibits”. Besides, the “inhibition of papain (in words)” value with Papain is listed as “did not inhibit”. In the assay on Tryptase M, the “inhibition of tryptase (in words)” value was “strongly inhibits”.

“peak 4: major HPLC peak of the purified inhibitor; full length A4i with 3 disulfide bridges (EVCSEQAETGPCRAMISRWYFDVTEGKCAPFFYGGCGGNRNNFDTEEYCMAVCGSAM; disulfide (positions not given here); UniProt P05067 289-345, looked up, fragment)”: the “activity in the trypsin inhibition assay” value in the assay with Trypsin [2] was “active”.
